Source: patent US20120316071A1
Values belong to the substance of their own block, whether it stands above or below them.

How the values were obtained:
[1] = target: rHuman CD44/Fc Chimera, CF (R&D Systems Cat#3660-CD) (human) (UniProt P16070); assay: Multispot ECL (MSD), antigen spotted on plate, Fab 70 nM; blank spot 635
[2] = target: rHuman ErbB2/Fc Chimera, CF (R&D Systems Cat#1129-ER) (human) (UniProt P04626); assay: as above
[3] = target: rHuman HGF R/c-MET/Fc Chimera, CF (R&D Systems Cat#358-MT/CF) (human) (UniProt P08581); assay: as above
[4] = target: rHuman IGF-1 sR, (IGF-1 sR), CF (R&D Systems Cat#391-GR) (human) (UniProt P08069); assay: as above
[5] = target: rHuman Notch-1/Fc Chimera, CF (R&D Systems Cat#3647-TK) (human) (UniProt P46531); assay: as above
[6] = target: rHuman P-Cadherin/Fc Chimera, CF (R&D Systems Cat#861-PC) (human) (UniProt P22223); assay: as above
[7] = target: rHuman CD44/Fc Chimera, CF (R&D Systems Cat#3660-CD) (human) (UniProt P16070); assay: Multispot ECL (MSD), antigen spotted on plate, Fab 17.5 nM; blank spot 304
[8] = target: rHuman ErbB2/Fc Chimera, CF (R&D Systems Cat#1129-ER) (human) (UniProt P04626); assay: as above
[9] = target: rHuman HGF R/c-MET/Fc Chimera, CF (R&D Systems Cat#358-MT/CF) (human) (UniProt P08581); assay: as above
[10] = target: rHuman IGF-1 sR, (IGF-1 sR), CF (R&D Systems Cat#391-GR) (human) (UniProt P08069); assay: as above
[11] = target: rHuman Notch-1/Fc Chimera, CF (R&D Systems Cat#3647-TK) (human) (UniProt P46531); assay: as above
[12] = target: rHuman P-Cadherin/Fc Chimera, CF (R&D Systems Cat#861-PC) (human) (UniProt P22223); assay: as above
[13] = target: rHuman CD44/Fc Chimera, CF (R&D Systems Cat#3660-CD) (human) (UniProt P16070); assay: Multispot ECL (MSD), antigen spotted on plate, Fab 280 nM; blank spot 1691
[14] = target: rHuman ErbB2/Fc Chimera, CF (R&D Systems Cat#1129-ER) (human) (UniProt P04626); assay: as above
[15] = target: rHuman HGF R/c-MET/Fc Chimera, CF (R&D Systems Cat#358-MT/CF) (human) (UniProt P08581); assay: as above
[16] = target: rHuman IGF-1 sR, (IGF-1 sR), CF (R&D Systems Cat#391-GR) (human) (UniProt P08069); assay: as above
[17] = target: rHuman Notch-1/Fc Chimera, CF (R&D Systems Cat#3647-TK) (human) (UniProt P46531); assay: as above
[18] = target: rHuman P-Cadherin/Fc Chimera, CF (R&D Systems Cat#861-PC) (human) (UniProt P22223); assay: as above
[19] = target: rHuman CD44/Fc Chimera, CF (R&D Systems Cat#3660-CD) (human) (UniProt P16070); assay: Multispot ECL (MSD), antigen spotted on plate, Fab 4.375 nM; blank spot 305
[20] = target: rHuman ErbB2/Fc Chimera, CF (R&D Systems Cat#1129-ER) (human) (UniProt P04626); assay: as above
[21] = target: rHuman HGF R/c-MET/Fc Chimera, CF (R&D Systems Cat#358-MT/CF) (human) (UniProt P08581); assay: as above
[22] = target: rHuman IGF-1 sR, (IGF-1 sR), CF (R&D Systems Cat#391-GR) (human) (UniProt P08069); assay: as above
[23] = target: rHuman Notch-1/Fc Chimera, CF (R&D Systems Cat#3647-TK) (human) (UniProt P46531); assay: as above
[24] = target: rHuman P-Cadherin/Fc Chimera, CF (R&D Systems Cat#861-PC) (human) (UniProt P22223); assay: as above
[25] = target: rHuman ErbB2/Fc Chimera, CF (R&D Systems Cat#1129-ER) (human) (UniProt P04626); assay: Multispot ECL (MSD) assay, antigen spotted on plate, Fab at […]; blank spot 751
[26] = target: rHuman ErbB2/Fc Chimera, CF (R&D Systems Cat#1129-ER) (human) (UniProt P04626); assay: Multispot ECL (MSD) assay, antigen spotted on plate, Fab at […]; blank spot 2945
[27] = target: rHuman ErbB2/Fc Chimera, CF (R&D Systems Cat#1129-ER) (human) (UniProt P04626); assay: Multispot ECL (MSD) assay, antigen spotted on plate, Fab at 0.096 µM; blank spot 917
[28] = target: Recombinant Human DLL4 (R&D Systems Cat#1506-D4/CF) (human) (UniProt Q9NR61); assay: ECL multispot (MSD), antigen spotted, Fab in solution
[29] = target: rHuman CD44/Fc Chimera, CF (R&D Systems Cat#3660-CD) (human) (UniProt P16070); assay: as above
[30] = target: rHuman EGF R/Fc Chimera, CF (R&D Systems Cat#344-ER) (human) (UniProt P00533); assay: as above
[31] = target: rHuman ErbB2/Fc Chimera, CF (R&D Systems Cat#1129-ER) (human) (UniProt P04626); assay: as above
[32] = target: rHuman Erythropoietin R/Fc Chimera, CF (R&D Systems Cat#963-ER) (human) (UniProt P19235); assay: as above
[33] = target: rHuman HGF R/c-MET/Fc Chimera, CF (R&D Systems Cat#358-MT/CF) (human) (UniProt P08581); assay: as above
[34] = target: rHuman IGF-1 sR, CF (R&D Systems Cat#391-GR) (human) (UniProt P08069); assay: as above
[35] = target: rHuman Notch-1/Fc Chimera, CF (R&D Systems Cat#3647-TK) (human) (UniProt P46531); assay: as above
[36] = target: rHuman P-Cadherin/Fc Chimera, CF (R&D Systems Cat#861-PC) (human) (UniProt P22223); assay: as above
[37] = target: rHuman EGF R/Fc Chimera, CF (R&D Systems Cat#344-ER) (human) (UniProt P00533); assay: MSD Multispot ECL, antigen spotted on plate, Fab 230 nM; blank spot 1656
[38] = target: rHuman EGF R/Fc Chimera, CF (R&D Systems Cat#344-ER) (human) (UniProt P00533); assay: MSD Multispot ECL, antigen spotted on plate, Fab 57.5 nM; blank spot 954
[39] = target: rHuman EGF R/Fc Chimera, CF (R&D Systems Cat#344-ER) (human) (UniProt P00533); assay: MSD Multispot ECL, antigen spotted on plate, Fab 920 nM; blank spot 4082
[40] = target: rHuman EGF R/Fc Chimera, CF (R&D Systems Cat#344-ER) (human) (UniProt P00533); assay: MSD Multispot ECL, antigen spotted on plate, Fab 14.375 nM; blank spot 738

ECL signal [1]: 1370
ECL signal [2]: 1360
ECL signal [3]: 1290
ECL signal [4]: 1320
ECL signal [5]: 1490
ECL signal [6]: 1820
ECL signal [7]: 664
ECL signal [8]: 541
ECL signal [9]: 565
ECL signal [10]: 626
ECL signal [11]: 680
ECL signal [12]: 949
ECL signal [13]: 4070
ECL signal [14]: 3950
ECL signal [15]: 3560
ECL signal [16]: 3530
ECL signal [17]: 4380
ECL signal [18]: 5400
ECL signal [19]: 424
ECL signal [20]: 384
ECL signal [21]: 193
ECL signal [22]: 369
ECL signal [23]: 480
ECL signal [24]: 469
Substance: Fab VH1-46_IGHD2-15*01_IGHJ2*01 & L12_IGKJ1*01

ECL signal [25]: 2310
ECL signal [26]: 11300
ECL signal [27]: 3360
Substance: Fab VH1-46_IGHD6-13*01_IGHJ4*01 & A27_IGKJ1*01

ECL signal/blank ratio [28]: 2
ECL signal/blank ratio [29]: 1
ECL signal/blank ratio [30]: 1.2
ECL signal/blank ratio [31]: 1.6
ECL signal/blank ratio [32]: 4.3
ECL signal/blank ratio [33]: 1.3
ECL signal/blank ratio [34]: 0.8
ECL signal/blank ratio [35]: 1.4
ECL signal/blank ratio [36]: 9.8
Substance: Fab VH3-23_IGHD3-10*01>3_IGHJ6*01 Y112V & O12_IGKJ1*01

ECL signal [37]: 5720
ECL signal [38]: 3860
ECL signal [39]: 13400
ECL signal [40]: 2670
Substance: Fab VH1-46_IGHD3-10*01_IGHJ4*01 & L12_IGKJ1*01
